According to the DeepSol protein solubility set:

Test: soluble on expression in E. coli; label from the status in PepcDB or PDB records

Sequence | soluble on expression in E. coli
QTITIKGQVLDEKKQPVSYASVVISTDSLSKKDISYAVTDEHGQFRIGQLSAIPDKRWIHVRSIGYLGFHKQISLRAVKSPLDITLTEDTKELEEVVVVARARDAYAKGDTIVFNSKNYTLGNERNLGDVVKKMPGMEVDQTGNISYQGKKIGKVLVDGQDILSSSSGVAMNTLPPDFANSIELLSNYTDGDIAHAFKAEEQLALNLKSNKKVALSGSFEGGGGLKDKFISKASLITVLPKISASTIINANNTGEAVFSIQDYMSNIIDFESIRSGASTQTSLSLSPEEQQLLLPPTNEHARTAGLANINISWTPHSSYKLRASTLFNKGKSEGAHTKTDTYTLPENYFTNISTGTADKETQLVSQYLSQKWIPSRFFSVSAKTKIDIRNHNADNIYANTFNDNHIHALEKPKNHFSGIKQDIEMKWLLSKGLLFGGGSFVFNKGKINSDIYTDVLLLPLPHINGNSIYPYFHEHIKKDMEKGFNAYVGGMYPVLNNIYLRGEFSMSMNWNELKMAYPTSINEETADLRVFRPYISLMKNKGVFRFNIGSYFSSYRQKTSPELLREKSLFYIEPHASIELVMSNQHRLMLSVSEAVSPSTIDYFSQQILAKGYNNLQLPSKLSNPFAKRFKGNLSYAYFSLFNRLSMYGNLSYIKDRDTHITVTTSKGLLISNFYQDGGWSNTLRTNAYLSKGIGTLPLDIKLSGKYTLSKHNLMRVDKEDELINKRVDAKLDLISRLYQSPVNFEIGVRFSRLDQKFTYSNIHSWNQE | not soluble
RADPDPMKNTCKLLVVADHRFYRYMGRGEESTTTNYLIELIDRVDDIYRNTAWDNAGFKGYGIQIEQIRILKSPQEVKPGEKHYNMAKSYPNEEKDAWDVKMLLEQFSFDIAEEASKVCLAHLFTYQDFDMGTLGLAYVGSPRANSHGGVCPKAYYSPVGKKNIYLNSGLTSTKNYGKTILTKEADLVTTHELGHNFGAEHDPDGLAECAPNEDQGGKYVMYPIAVSGDHENNKMFSQCSKQSIYKTIESKAQECFQERSNKVGSHHHHHH | soluble
RAETAVQRTEDRYHNLVDTAPIPILLFDRDWKALYANEAAIAFLDADSFTEIAGKKASDFLHPDERDAARKRFQRLMREGVSVPEREYRVMTAEGEVKTATIATAPGYYRGEQVAQAMVYR | soluble
RAHQRWREHALAVIKDKMYNHIGSILVFLPGVADIRFLLDSLMAQKVEGVKICPLFGELSLKEQQQAIAPCLSGHRKIVLATNIAETSLTIDGIDLVIDCGLEKVAVFDSASLMNKLMQKQISKASAVQRAGRAGRLMHGQCIRLYGKDDFERR | not soluble
RCPELYRGVVMLDSPVLGLADKLFIRAAKRLGFIDRITPAGRTLGRRDAFADLDAARTYFASKTLFRRFDPDCLTAYLQHGLQQDGEQLRLRFDPATEISIYRSIPHTSPLPSRQLKVPLAMVRGKHSRVIMPHHGYLARRMRDGEYLSMPGGHMFPLERPDETAQLLKSLFARWDA | not soluble
RDVVGVGFGPANLALAIAIEEHNAECPPRERISAQFFEKQDRFGWHPGMLLDGATMQIAFPKDLVTFRNPRSAFTFFNYLFDQGRLVDFVNHQTFFPTRHEFHDYLQWAARRVDADVRYGTAVETVRGIRGDDGVIDRFEVRTADGSTVIARNVVMGAGLRERIPEWANPSARCFHNHQFLFRLGEMPAPVHHRFVVLGAGQSAAEIVQYLHGN | not soluble
REATWVTEKPLTLKIHMHFRDKWVWDENWPVAREVARLTNVKLVGVANRAATNSQEQFNLMMASGQLPDIVGGDNLKDKFIRYGMEGAFIPLNKLIDQNAPNLKAFFKTHPEVQRAITAPDGNIYYLPYVPDGLVSRGYFIRQDWLDKLHLKTPQTVDELYTVLKAFKEKDPNGNGKADEIPFINRDPEEVFRLVNFWGARSTGSNTWMDFYVENGKIKHPFAEVAFKDGIKHVAQWYKEGLIDPEIFTRKARSREQTFGNNIGGMTHDWFASTALFNDALSKNIPGFKLVPMAPPINSKGQRWEEDARQIPRPDGWAITATNKNPVETIKLFDFYFGPKGRELSNFGVPGLTYDIKNGKPVYKDTVLKAAQPVNNQMYDIGAQIPIGFWQDYEYERQWTNDVALQGIDMYIKNKYVLPQFTGVNLTVEEREIYDKYWPDVKTYMFEMGQSWVMGTKDPEKTWNDYQQQLKNRGFYQVMIVMQKAYDRQY | soluble
REIADNTYIVLGTMTLNDFNEYFETDLESDNVDTIAGFYLTGVGTIPSQEEKEHFEVESNGKHLELINDKVKDGRVTKLKILVSEVEEKEDEKD | not soluble
RGIPQITGPTTVNGLERGSLTVQCVYRSGWETYLKWWCRGAIWRDCKILVKTSGSEQEVKRDRVSIKDNQKNRTFTVTMEDLMKTDADTYWCGIEKTGNDLGVTVQVTIDPAPVTQEETSSSPT | soluble
RGSHMEVRNMVDYELLKKVVEAPGVSGYEFLGIRDVVIEEIKDYVDEVKVDKLGNVIAHKKGEGPKVMIAAHMDQIGLMVTHIEKNGFLRVAPIGGVDPKTLIAQRFKVWIDKGKFIYGVGASVPPHIQKPEDRKKAPDWDQIFIDIGAESKEEAEDMGVKIGTVITWDGRLERLGKHRFVSIAFDDRIAVYTILEVAKQLKDAKADVYFVATVQEEVGLRGARTSAFGIEPDYGFAIDVTIAADIPGTPEHKQVTHLGKGTAIKIMDRSVICHPTIVRWLEELAKKHEIPYQLEILLGGGTDAGAIHLTKAGVPTGALSVPARYIHSNTEVVDERDVDATVELMTKALENIHELKI | soluble
RHQNYGVPWTPGETRQVWDVEARIEFNANGNEVKASLAAPHTQSGYTLIGESASSSGYGVSYINSDSGRRAEWSIRQAKGPQTIYYKAQFLVDPQAKVEPLPPAGDITPPTLSAPQQAAASALIDQAMSRSADNVTFARELIKTLNDPDSQNSALLLNDFDRTDALHKILLSAGVQSKIVGVIELEDGRRRQTIQPMVQVWSGKDWVLFSPNSEQKAVKPNLLVWDESNVSLLDLVGGKNSQVHFSMIKQEVTPQQATNNKVEADGLLNLSIHSLPLEEQAMFK | soluble
RIGVIGTGAIGGFYGLMLAHAGHDVHFLLRSEFEAVNRAGLSLNSAVHGFRRLAPVQAYHSAQDMPPCDWLLVGAKTTGNDELAPLIRAAAAPGAKVLLLQNGLGVEERLRPLLPESLHLLGGLCFICVHRGEPGVIEHQAYGGVNLGYHSGPADERRRREIVEEGAALFRESGLESTAMPDLEQARWQKLVWNIPYNGLSVLLKSSTAPLMANADSRSLIEAIMEEVIGAAGACGFILPEGYADQLLAATERMPDYRPSMYHDFAHGRPLELAAIYAAPLARAAA | not soluble
RLNLKAIAERSESLEDFFTRTLPHYCQQQIAIIDARCEFLYQQSHFFENSFLVKEGLINPERFVPMFGMYGLAEAVNLLCEKEGIAARYGKEAAANEVGYRISAQLAEFVANTPVKYGWQKRAMLHAQSGISSDIGTTPGARLPYGDEPDPITHLQTVAPHHAYYYSGISDILTLDETIKRNPQALVQLCLGAFKAGMREFTANVSGNDLVRVTGYMVRLSDLEKYRAEGSRTNTTWL | not soluble
RLPKKHYTDSLDYALFKELIRVSVASNNKQILDYYEHHCHKKNPATACQYGYVLALLNNNNFQKAAEKLNPLLLQDNSNLNFQIAMAQAELGLSQYQSALSRLAELQNNFPDNYAALMAYAQGLLTANQPQKATAVLLKGSRQYKEDLPLCRELARAQA | not soluble
RLSLRAKAKEINLENLEEFVSEVKARNLKAYLAVNSTVNEDRLEEAGNVINAAAKAGVDAVIAWDPAVILKARKSGLRIHISTQANTTNHETAEFYRALGAERIVLSRELSLEEIREIRQRSEVEVETFVHGAMCMAVSGRCHLSAYVLGKSGNCGECTQPCRWEWELHGENNLVMESRGKYLLSAKDLCMIEHIPALLGARIDSFKVEGRLRDPGYLEVVSRCYREAIDACKEGTYTREKVDSWLSKLSSVYNRGFSTGFYFGIPGLEGFSPEKSMNASEKKRRAAGIVENYYPRQHAAAIKLLEEGLEIGNEILIEGSTTYLKQRVTSLIKNGMSLQKAEKGDEVGLAVDGTVRRNDRIFI | not soluble
RMPGLPDIAFTGDGQMTKHEIRALTLCALAPAAGELLWDVGGGSGTVAIEWMRTHPLCRAVTFERSAARVDQIESNAAALGVPSLAVFGDAPAAFEDVPPELSTPDAIFVGGGVTQDGLLDECWSRLRVGGRMVVNAVTAESEALLLQWFSNCGGQLRKFQVYRGEPLGGFTAWRPQLPVAQWSVTKQSKGDAA | not soluble
RNVSFRMQPIRIPMGMIGGFIGGQIDEMISTSKDRRIDWSEVYSKDTLYGRGNSG | soluble
RPAIRKRLLKPKVLDSSPRALVGHRAEVLEDVGATSGQVRLDGSIWSARSMDPTHTFAEGEIVSVIDIQGTTAIVWKEA | soluble
RPFMQKRAQKALPHVSTGADALVGRKVLVTETIDPTTDKGRVAVDGDVWTARSLTGEVIEKGMRVEIVSYESIVLNVVVLGNDKQ | not soluble
RPVGTIFVIGDTKEVMKHSHQLVPNPFKGHKINIMNPKVKPIIKEFSFLDGAFIISSTGRVVAAGRYLDVDPKKLEIDIPQGLGSRHLASAAITKVTKAIAITLSESGVIRVFKDGK | soluble
RPVWYGEPVDIQPEHRDMMLVVDLSGSMAEEDMKTSNGDFVDRLTAVKQVVSDFIDQRKGDRLGLVLFGDHAYLQTPLTFDRNTVREQLDRTVLNLVGQRTAIGEGLGLATKTFIESNAPQRTIILLSDGANTAGVLEPLEAAQLAKDNHAKIYTVGIGAGEMQVRGFFGKQTVNTARDLDEDTLTKIATMTGGQYFRARNADELAEIYQTIDALEP | soluble
RRKPGKCPVTYGQCLMLNPPNFCEMDGQCKRDLKCCMGMCGKSCVSPVKA | soluble
RVAVLVATHGNNTASSMVSVAKKLLGEGLVEGIDMPLDQSPKIVLDKLTERAKEMDMGRGLLLLVDMGSLTSFAPVISERTGIPVRSIDMVSTATVIEAVRKSNILDMELDSIYDSLKDFRGYGGYNSDDDTLDS | not soluble
RYRGSKWAGKKSIPAFIDNDYNEADQVIENLQRNELTPREIADFIGRELAKGKKKGDIAKEIGKSPAFITQHVTLLDLPEKIADAFNTGRVRDVTVVNELVTAFKKRPEEVEAWLDDDTQEITRGTVKLLREFLDEKGRDPNTVDAFNGQTDAERDAEAGDGQDGEDGDQDGKDAKEK | soluble
SAALTAEHFVALQSLLKASSKDVVRQLCQESFSSSCLDSESLLDKTCSSLSVPQGEAAQLLQALHHFTRLVAFRDLSSAEAILALFPENFHQNLKNLLTKIIVEHISTWRAEAQANQISLPRLVDLDWRVDIKTSSDNISRMAVPTCLLQMKIQEDPSLCGEKPSISAVTMELSKETLDTMLDGLGRIRDQLSAVANK | soluble
SAFSGTWQVYAQENYEEFLRAISLPEEVIKLAKDVKPVTEIQQNGSDFTITSKTPGKTVTNSFTIGKEAEITTMDGKKLKCIVKLDGGKLVTRTDRFSHIQEIKAGEMVETLTVGGTTMIRKSKKILVP | soluble
SANPKLLGLELSEAEAIGADSARFEELLLQASKELQQAQTTRPESTQIQPQPGFCIKTNSSEGKVFINICHSPSIPPPADVTEEELLQMLEEDQAGFRIPMSLGEPHAELDAKGQGCTAYDVAVNSDFYRRMQNSDFLRELVITIAREGLEDKYNLQLNPEWRMMKNRPFMGSISQQNIRSEQRPRIQELGDLYTPAPGRAESGPEKPHLNLWLEAPDLLLAEIDLPKLDGALGLSLEIGENRLVMGGPQQLYHLDAYIPLQINSHESKAAFHRKRKQLMVAMPLLLVPS | soluble
SAPGVPDARAIAAICEQLRQHVADLGVLYIKLHNYHWHIYGIEFKQVHELLEEYYVSVTEAFDTIAERLLQLGAQAPASMAEYLALSGIAEETEKEITIVSALARVKRDFEYLSTRFSQTQVLAAESGDAVTDGIITDILRTLGKAIWMLGATLKA | soluble
